# T1: EPOR-Fc (Homo sapiens, UniProt P19235)
# T1 construct: The extracellular domains of EPOR or CD131 are produced as soluble Fc fusion proteins; purchased Sino Biological 10707-H02H
# T1 sequence (P19235 25-250 limits assumed): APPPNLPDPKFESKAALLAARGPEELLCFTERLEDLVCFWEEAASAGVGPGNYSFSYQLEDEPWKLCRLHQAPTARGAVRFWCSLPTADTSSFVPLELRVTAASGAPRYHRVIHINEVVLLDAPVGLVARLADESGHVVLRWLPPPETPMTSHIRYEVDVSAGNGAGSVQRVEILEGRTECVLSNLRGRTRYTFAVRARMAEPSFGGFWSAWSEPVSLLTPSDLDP
# T2: UT-7 cells (Homo sapiens, UniProt P19235)
# T2 construct: endogenous in cells; host or cells: UT-7 human leukemia cells
# T2 sequence (P19235 25-508): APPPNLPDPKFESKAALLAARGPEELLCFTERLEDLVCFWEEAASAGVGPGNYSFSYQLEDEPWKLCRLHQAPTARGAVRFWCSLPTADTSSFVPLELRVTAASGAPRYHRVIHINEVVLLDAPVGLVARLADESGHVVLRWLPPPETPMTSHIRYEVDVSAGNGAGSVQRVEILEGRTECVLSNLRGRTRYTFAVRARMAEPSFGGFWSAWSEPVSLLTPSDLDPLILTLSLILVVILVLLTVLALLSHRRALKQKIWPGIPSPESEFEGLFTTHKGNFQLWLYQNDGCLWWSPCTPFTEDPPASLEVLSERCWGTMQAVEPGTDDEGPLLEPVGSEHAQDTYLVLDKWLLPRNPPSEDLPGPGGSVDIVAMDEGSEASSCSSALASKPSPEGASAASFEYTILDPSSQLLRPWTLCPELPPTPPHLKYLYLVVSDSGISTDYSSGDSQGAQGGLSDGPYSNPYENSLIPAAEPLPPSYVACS
# T3: EPO/EPOR interaction (EPOR-CD131-Fc and EPO) (Homo sapiens, UniProt P19235+P32927)
# T3 construct: Chimeric Fc fusion proteins of the extracellular domains of human EPOR and human CD131; purchased Sino Biological CT010-H02H
# T3 sequence (P19235 25-250 limits assumed): T1 sequence (P19235 25-250 limits assumed)
# T3 sequence (P32927 17-443 limits assumed): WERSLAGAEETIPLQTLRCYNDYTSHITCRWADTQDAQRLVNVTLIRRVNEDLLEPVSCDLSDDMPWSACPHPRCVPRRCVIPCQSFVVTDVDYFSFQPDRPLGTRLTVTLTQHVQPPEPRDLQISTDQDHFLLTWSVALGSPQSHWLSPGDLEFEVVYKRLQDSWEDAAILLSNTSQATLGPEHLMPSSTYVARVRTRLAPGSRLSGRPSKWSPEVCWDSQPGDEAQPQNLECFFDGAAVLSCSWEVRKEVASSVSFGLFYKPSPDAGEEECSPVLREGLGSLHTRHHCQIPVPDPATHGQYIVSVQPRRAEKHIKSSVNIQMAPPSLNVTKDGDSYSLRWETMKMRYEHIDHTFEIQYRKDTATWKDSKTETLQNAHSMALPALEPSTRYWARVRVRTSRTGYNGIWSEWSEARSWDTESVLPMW
# B1: EPORab - M2: hybridoma antibody clone, VH/VK in Table 10 (antibody, V domains shown)
# VH: QVQLVESGGGLVKPGGSLRLSCAASGFTFSDSYMSWIRQAPGKGLEWVSYISNSGSYMYYADSVKGRFTISRDNAKNSLYLQMNNLRAEDTAVYYCARDKLGIGDYWGQGTLVTVSS
# VL: DIQMTQSPSSLSASVGDRVTITCRASQGIRNDLGWFQQKPGKAPKRLIYAASRLQSGVPSRFSGSGSGTEFTLTISSLQPEDFATYCCLQHHTYPPTFGQGTKVEIK
# How the values were obtained:
# EPOR-Fc = target: T1, EPOR-Fc; assay: Bio-layer interferometry (Octet) binding of hybridoma antibodies to EPOR-Fc; details: hybridoma supernatants; 30 nM soluble receptor
# Text: The B cells from ATX-GK mice were fused with mouse myeloma cells to generate hybridoma. The hybridoma cells were screened twice. In the first screening, 293 cells expressing human EPOR, human CD131, or both were used as the primary screen. 87 hybridoma antibodies have been isolated by positive staining on 293T cells expressing human EPOR (hEPOR), human CD131 (hCD131), or both, with the hybridoma supernatants (Table 11 and FIG. 17). Expression of EPOR and CD131 was confirmed by flow cytometry with Phycoerythrin (PE)-labeled anti-EPOR (R&D Systems, Cat #FAB307P) and Alexa Fluor® 647 (AF647)-labeled anti-CD131 (BD Biosciences, Cat #564191), respectively (FIG. 28B). All hybridoma clones were purified and sequenced. Binding kinetics with soluble hetero-EPOR (EPOR-CD131-Fc), soluble EPO receptor subunit of hetero-EPOR (EPOR-Fc), and soluble CD131 subunit of hetero-EPOR (CD131-Fc) were measured using bio-layer interferometry (Octet®) by capturing the hybridoma antibodies in the supernatants on biosensors coated with anti-mouse Fc first and dipping the biosensors into the solutions containing 30 nM of the soluble receptor Fc fusion proteins. The supernatants were also used to block the interaction between EPO and EPOR. The soluble EPOR-CD131-Fc was first captured on biosensors coated with anti-human Fc and then dipped into 10 nM of EPO with or without the hybridoma supernatants. […]
# UT-7 cells = target: T2, UT-7 cells; assay: Staining of UT-7 cells with purified antibodies; type: binding
# Procedure: The purified antibodies were used to stain the human leukemia UT-7 cells, 293T/EPOR, 293T/CD131, and 293T/EPOR/CD131 cells to confirm antigen binding. The UT-7 cells were maintained in Roswell Park Memorial Institute (RPMI) with 10% Fetal Bovine Serum (FBS) and 5 ng/ml of recombinant human GM-CSF (Peprotech®, Cat #300-03). The 293T cells expressing hEPOR, hCD131, or both were maintained in Dulbecco's Modified Eagle Medium (DMEM) with 10% FBS. 1×10^6 cells/ml were incubated with purified hybridoma clones M2 and M41 at a 3-fold dilution series starting from 20 μg/ml for 30 minutes at 4° C. After washing, the cells were incubated with PE labeled secondary antibody and subjected to flowcytometric analysis. […] The binding profiles of the 293T/EPOR/CD131 cells are similar except the peak MFIs around 1500, half of that of the 293T/EPOR cells (FIG. 29B).
# [1] = target: T3, EPO/EPOR interaction (EPOR-CD131-Fc and EPO); assay: Octet blocking of the EPO/EPOR interaction by hybridoma supernatants; type: binding; details: EPO 10 nM
molecule,measurement,setting,value
B1,binding to EPOR-Fc,EPOR-Fc,potent binding
same,MFI,UT-7 cells,"~18,000"
same,blocking of the EPO/EPOR interaction,[1],nearly complete blocking
